This note sets out measurements from PMC5892938, “SARNAclust: Semi-automatic detection of RNA protein binding motifs from immunoprecipitation data”.

For series [1], the target named is T1, GST-SBP-SLBP (stem-loop binding protein) (Homo sapiens, UniProt Q14493 1-270). The series can be described thus: targeted RNA Bind-n-Seq; RBNS binding buffer: 25 mM Tris pH 7.5, 150 mM KCl, 3 mM MgCl2, 0.1% Tween, 0.5 mg/mL BSA, 1 mM DTT; 27 nM protein, 750 pM RNA pool; temperature not stated; high values mean tight binding. The note with it: protein: recombinant; tags: N-terminal GST and SBP (pGEX6P1-SBP). The method, boiled down: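 Read counts per sequence supply the binding signal, defined as the DEseq fold change on a binary-logarithm scale. These counts came from RNA of a designed, T7-transcribed oligo pool at 750 pM that bound 27 nM of GST-SBP-tagged protein, made in Rosetta(DE3) pLysS E. coli and glutathione-purified, in RBNS binding buffer. The bound RNA was reverse transcribed with a 10-nucleotide barcoded primer, PCR-amplified and sequenced on a MiSeq with 200-cycle paired-end reads, then processed with FLASH and HISAT2 and collapsed by barcode.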

The target of series [2] is T1, GST-SBP-SLBP (stem-loop binding protein). As to the kind of experiment: EMSA; 320 nM protein, 1 nM RNA, 1 mM Mg2+; EMSA: 10 mM HEPES pH 7.3, 20 mM KCl, 1 mM MgCl2, 20 mM DTT, 5% glycerol, 30 min, 4°C. RBNS: 25 mM Tris pH 7.5, 150 mM KCl, 0.1% Tween, 0.5 mg/mL BSA, 3 mM MgCl2, 1 mM DTT. As to conditions: protein: recombinant; tags: N-terminal GST and SBP (pGEX6P1-SBP); label: 3' biotin; hairpin. For orientation: In EMSA bound probe runs differently from free probe, usually more slowly.

B1: consensus (structured_RNA)
RNA: GGUCACGUCUCAAUCAACUCCCAAAGGCUUUUUUUAAAGCCACCCAUCAACAGCUCGCAGUCAAG
In the case of B1, the binding signal in series [1] is 2.93 ± 0.199 log2 fold change.

B2: consensus (structured_RNA)
RNA: GGUCACGUCUCAAUCAACUCCCAAAGGCUUUUUUGAAAGCCACCCAUCAACAGCUCGCAGUCAAG
Take B2: the binding signal in series [1] worked out at 2.83 ± 0.141 log2 fold change.

B3: consensus (structured_RNA)
RNA: GGUCACGUCUCAAUCAACUCCCAAAGGUUCUUUUUAGGACCACCCAUCAACAGCUCGCAGUCAAG
For the molecule B3, the binding signal in series [1] is 2.58 ± 0.123 log2 fold change.

B4: consensus (structured_RNA)
RNA: GGUCACGUCUCAAUCAACUCCCAAAGGUUUUUUUAAAAACCACCCAUCAACAGCUCGCAGUCAAG
As to B4, the binding signal in series [1] was determined as 2.88 ± 0.264 log2 fold change.

B5: consensus (structured_RNA)
RNA: GGUCACGUCUCAAUCAACUCCCAAAGGCUUUUUUUAAGGCCACCCAUCAACAGCUCGCAGUCAAG
Turning to B5, the binding signal in series [1] is 2.7 ± 0.125 log2 fold change.

B6: consensus (structured_RNA)
RNA: GGUCACGUCUCAAUCAACUCCCAAAGGCUCUUCUGAGAGCCACCCAUCAACAGCUCGCAGUCAAG
On to B6, for which the binding signal in series [1] worked out at 2.5 ± 0.154 log2 fold change.

B7: consensus (structured_RNA)
RNA: GGUCACGUCUCAAUCAACUCCCAAAGGUUCUUCUCAGGACCACCCAUCAACAGCUCGCAGUCAAG
Regarding B7, in series [1], the binding signal came to 2.79 ± 0.125 log2 fold change.

B8: consensus (structured_RNA)
RNA: GGUCACGUCUCAAUCAACUCCCAAAGGCCCUUCUAAGGGCCACCCAUCAACAGCUCGCAGUCAAG
Turning to B8, the binding signal in series [1] is 3.65 ± 0.165 log2 fold change.

B9: consensus (structured_RNA)
RNA: GGUCACGUCUCAAUCAACUCCCAAAGGCUCUUUUUAGGGCCACCCAUCAACAGCUCGCAGUCAAG
With B9, the binding signal in series [1] amounted to 2.74 ± 0.145 log2 fold change.

B10: consensus (structured_RNA)
RNA: GGUCACGUCUCAAUCAACUCCCAAAGGUUCUUUUUAGAACCACCCAUCAACAGCUCGCAGUCAAG
With B10, the binding signal in series [1] is 2.84 ± 0.113 log2 fold change.

B11: consensus (structured_RNA)
RNA: GGUCACGUCUCAAUCAACUCCCAAAGGCUUUUCUUAAGGCCACCCAUCAACAGCUCGCAGUCAAG
As to B11, the binding signal in series [1] came out at 2.45 ± 0.137 log2 fold change.

B12: consensus (structured_RNA)
RNA: GGUCACGUCUCAAUCAACUCCCAAAGGUUUUUCUCAAAACCACCCAUCAACAGCUCGCAGUCAAG
For the molecule B12, in series [1], the binding signal was 2.81 ± 0.12 log2 fold change.

B13: consensus (structured_RNA)
RNA: GGUCACGUCUCAAUCAACUCCCAAAGGUCCUUUUGAGGGCCACCCAUCAACAGCUCGCAGUCAAG
Regarding B13, in series [1], the binding signal turned out to be 2.63 ± 0.152 log2 fold change.

B14: consensus (structured_RNA)
RNA: GGUCACGUCUCAAUCAACUCCCAAAGGUCUUUCUCAAGGCCACCCAUCAACAGCUCGCAGUCAAG
B14: the binding signal in series [1] was found to be 2.87 ± 0.126 log2 fold change.

B15: consensus (structured_RNA)
RNA: GGUCACGUCUCAAUCAACUCCCAAAGGUCUUUCUUAAGGCCACCCAUCAACAGCUCGCAGUCAAG
Turning to B15, in series [1], the binding signal is 2.73 ± 0.134 log2 fold change.

B16: consensus (structured_RNA)
RNA: GGUCACGUCUCAAUCAACUCCCAAAGGCUUUUCUGAAAGCCACCCAUCAACAGCUCGCAGUCAAG
Take B16: the binding signal in series [1] turned out to be 2.53 ± 0.134 log2 fold change.

B17: consensus (structured_RNA)
RNA: GGUCACGUCUCAAUCAACUCCCAAAGGUUCUUCUAAGGACCACCCAUCAACAGCUCGCAGUCAAG
For B17, in series [1], the binding signal came to 2.79 ± 0.124 log2 fold change.

B18: consensus (structured_RNA)
RNA: GGUCACGUCUCAAUCAACUCCCAAAGGUUCUUCUAAGGGCCACCCAUCAACAGCUCGCAGUCAAG
Regarding B18, the binding signal in series [1] was found to be 2.42 ± 0.134 log2 fold change.

B19: consensus (structured_RNA)
RNA: GGUCACGUCUCAAUCAACUCCCAAAGGUUCUUUUUAGAGCCACCCAUCAACAGCUCGCAGUCAAG
With B19, the binding signal in series [1] came to 2.54 ± 0.128 log2 fold change.

B20: consensus (structured_RNA)
RNA: GGUCACGUCUCAAUCAACUCCCAAAGGUUUUUUUAAAAGCCACCCAUCAACAGCUCGCAGUCAAG
B20: in series [1], the binding signal was found to be 2.53 ± 0.247 log2 fold change.

B21: consensus (structured_RNA)
RNA: GGUCACGUCUCAAUCAACUCCCAAAGGUCUUUUUUAAGGCCACCCAUCAACAGCUCGCAGUCAAG
Turning to B21, the binding signal in series [1] stood at 2.89 ± 0.126 log2 fold change.

B22: consensus (structured_RNA)
RNA: GGUCACGUCUCAAUCAACUCCCAAAGGUCUUUCUGAAGACCACCCAUCAACAGCUCGCAGUCAAG
As for B22, the binding signal in series [1] was 2.75 ± 0.139 log2 fold change.

B23: consensus (structured_RNA)
RNA: GGUCACGUCUCAAUCAACUCCCAAAGGUUCUUCUUAGAACCACCCAUCAACAGCUCGCAGUCAAG
As to B23, the binding signal in series [1] amounted to 2.63 ± 0.139 log2 fold change.

B24: consensus (structured_RNA)
RNA: GGUCACGUCUCAAUCAACUCCCAAAGGCUCUUCUUAGGGCCACCCAUCAACAGCUCGCAGUCAAG
For B24, in series [1], the binding signal stood at 2.44 ± 0.146 log2 fold change.

B25: consensus (structured_RNA)
RNA: GGUCACGUCUCAAUCAACUCCCAAAGGUUCUUUUAAGGGCCACCCAUCAACAGCUCGCAGUCAAG
For the molecule B25, the binding signal in series [1] came to 2.44 ± 0.142 log2 fold change.

B26: consensus (structured_RNA)
RNA: GGUCACGUCUCAAUCAACUCCCAAAGGCUCUUUUGAGAGCCACCCAUCAACAGCUCGCAGUCAAG
With B26, the binding signal in series [1] stood at 2.84 ± 0.154 log2 fold change.

B27: consensus (structured_RNA)
RNA: GGUCACGUCUCAAUCAACUCCCAAAGGUCUUUUUCAAGACCACCCAUCAACAGCUCGCAGUCAAG
B27: in series [1], the binding signal was found to be 3.61 ± 0.112 log2 fold change.

B28: consensus (structured_RNA)
RNA: GGUCACGUCUCAAUCAACUCCCAAAGGUCCUUCUUAGGGCCACCCAUCAACAGCUCGCAGUCAAG
Turning to B28, the binding signal in series [1] came out at 2.76 ± 0.147 log2 fold change.

B29: consensus (structured_RNA)
RNA: GGUCACGUCUCAAUCAACUCCCAAAGGUUUUUCUUAAAACCACCCAUCAACAGCUCGCAGUCAAG
Consider B29, for which, in series [1], the binding signal worked out at 2.59 ± 0.138 log2 fold change.

B30: consensus (structured_RNA)
RNA: GGUCACGUCUCAAUCAACUCCCAAAGGUUCUUCUAAGAGCCACCCAUCAACAGCUCGCAGUCAAG
For the molecule B30, in series [1], the binding signal was 2.77 ± 0.139 log2 fold change.

B31: consensus (structured_RNA)
RNA: GGUCACGUCUCAAUCAACUCCCAAAGGUUUUUUUCAAAGCCACCCAUCAACAGCUCGCAGUCAAG
As for B31, the binding signal in series [1] amounted to 2.7 ± 0.146 log2 fold change.

B32: consensus (structured_RNA)
RNA: GGUCACGUCUCAAUCAACUCCCAAAGGUUUUUUUUAAAACCACCCAUCAACAGCUCGCAGUCAAG
As for B32, the binding signal in series [1] was found to be 2.51 ± 0.271 log2 fold change.

B33: consensus (structured_RNA)
RNA: GGUCACGUCUCAAUCAACUCCCAAAGGUCCUUCUGAGGACCACCCAUCAACAGCUCGCAGUCAAG
As to B33, in series [1], the binding signal was 2.83 ± 0.137 log2 fold change.

B34: consensus (structured_RNA)
RNA: GGUCACGUCUCAAUCAACUCCCAAAGGUUUUUCUAAAAGCCACCCAUCAACAGCUCGCAGUCAAG
With B34, the binding signal in series [1] amounted to 2.61 ± 0.133 log2 fold change.

B35: consensus (structured_RNA)
RNA: GGUCACGUCUCAAUCAACUCCCAAAGGUCCUUUUUAGGGCCACCCAUCAACAGCUCGCAGUCAAG
For the molecule B35, the binding signal in series [1] amounted to 2.9 ± 0.135 log2 fold change.

B36: consensus (structured_RNA)
RNA: GGUCACGUCUCAAUCAACUCCCAAAGGCCUUUUUAAAGGCCACCCAUCAACAGCUCGCAGUCAAG
Consider B36, for which the binding signal in series [1] came to 3.68 ± 0.122 log2 fold change.

B37: consensus (structured_RNA)
RNA: GGUCACGUCUCAAUCAACUCCCAAAGGUUCUUCUCAGAGCCACCCAUCAACAGCUCGCAGUCAAG
For B37, the binding signal in series [1] turned out to be 2.76 ± 0.132 log2 fold change.

B38: consensus (structured_RNA)
RNA: GGUCACGUCUCAAUCAACUCCCAAAGGUUCUUUUCAGGGCCACCCAUCAACAGCUCGCAGUCAAG
As for B38, in series [1], the binding signal worked out at 2.49 ± 0.153 log2 fold change.

B39: Consensus Loop Only A (CLA) (structured_RNA)
RNA: GGUCACGUCUCAAUCAACUCAUCCCCAGGAGUUUACUCCUGUUUAGUCAACAGCUCGCAGUCAAG
Regarding B39, the binding result in series [2] was “no binding”.

B40: Consensus Loop Only B (CLB) (structured_RNA)
RNA: GGUCACGUCUCAAUCAACUCAACUCCAGGAGUUUACUCCUGUAAUCUCAACAGCUCGCAGUCAAG
For B40, the binding result in series [2] is listed as “no binding”.
